In patent US20250195685A1 (CAPSTAN THERAPEUTICS, published 2025):
Where two headings read alike, the source gives them in different places.

How the values were obtained:
[1] = target: T1, human CD8 on cells (CD8-overexpressing HEK293T cells, SupT1, HPB-ALL, human T cells, transfected HEK293 of … (human, UniProt P01732 22-235)); test: flow cytometry, Human Expanded T cells Donor 6, gated on live CD8 T cells (via CD3+CD4-)
T1 construct: whole, on cells; also called cell surface CD8
Procedure: (§1) To obtain the results shown in FIG. 8A and FIG. 8B, 5×10⁴ expanded primary T cells (human, cynomolgus macaque or rhesus monkey) were thawed and transferred to a V bottom 96-well culture plate (Corning). Cells were washed twice with Cell Staining buffer (#420201, Biolegend). Each anti-CD8α antibody was diluted in four-fold antibody titration series from 60 μg/mL to 0.057 ng/mL into Cell Staining buffer. Cells were stained with each diluted antibody solution for 30 minutes on ice. Cells were then washed three times with Cell Staining buffer and primary antibody binding was detected by staining with anti-human Fc BV421 conjugate antibody (#410704, Biolegend) at 1:200 dilution for 30 minutes on ice. […] Flow cytometry data was analyzed by Flowjo 10 (Becton, Dickinson & Company) to measure the geometric median fluorescence intensity (gMFI) of the on-cell binding from each antibody. The gMFI values were normalized with the gMFI measured in the sample stained with only the secondary detection antibody and plotted against the concentration of the added antibodies. The binding curves were constructed using Graphpad Prism software, and EC₅₀ values were determined by non-linear curve fitting.

[2] = target: T2, rhesus macaque CD8 on expanded primary T cells (rhesus macaque); test: flow cytometry, Rhesus Expanded T cells Donor 8, gated on CD4- T cells, anti-human Fc BV421
T2 construct: also called CD4- CD8+ rhesus T cells
Procedure: (§2) Binding was measured by fluorescence from the BV421 fluorophore-conjugated anti-human Fc secondary antibody that recognize the binders. The gMFI was normalized to the gMFI of the secondary antibody in the absence of the anti-CD8α binders.
as §1, with “Cells were stained with each diluted antibody solution for 30 minutes on ice.” left out

[3] = target: T3, human CD8αα homodimer, recombinant protein (Acro Biosystems) (human, UniProt P01732 22-182); test: BLI steady state, whole hIgG1-LALAPA antibody on CD8α-His (Ni-NTA sensor), 30 °C
T3 construct: also called CD8αα antigen; biotinylated CD8α recombinant protein (CDA-H82E3)
T3 sequence (P01732 22-182 limits assumed): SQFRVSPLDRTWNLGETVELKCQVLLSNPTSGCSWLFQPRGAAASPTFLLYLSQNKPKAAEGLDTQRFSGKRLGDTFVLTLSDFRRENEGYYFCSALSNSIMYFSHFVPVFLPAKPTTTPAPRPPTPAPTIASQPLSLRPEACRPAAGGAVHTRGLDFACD

[4] = target: T3, human CD8αα homodimer, recombinant …; test: BLI steady state analysis, whole antibody, sample stressed at pH 8.5, 40 °C, 7 days
Procedure: (§3) To assess affinity of whole antibodies, steady state analysis was used as the bivalent nature of both whole antibody and CD8α complicates kinetic analysis. 50 nM CD8α-His (that is, CD8α with a C-terminal oligohistidine tag; Acro) was immobilized on Ni-NTA sensor probes. Binding was analyzed with a three-fold antibody dilutions series: 60 nM, 20 nM, 6.67 nM, 2.22 nM, 0.74 nM, and 0.25 nM. The antigen-loaded sensors were incubated in the diluted solutions to capture the whole IgG antibody for 300 s to record the association phase. Sensors were incubated in the kinetic buffer for 900 s to record the dissociation phase. The spin speed was 1000 rpm for all steps except the antigen loading step which was 400 rpm to control density of the antigen. The temperature of the performed assays was at 30° C. during the association and dissociation phases. The sensor data were baseline subtracted and further analyzed in GatorOne software (version 2.10) to determine the equilibrium dissociation constants (KD) of the antibodies by fitting the signals of the steady states to the 1:1 binding model.

[5] = target: T3, human CD8αα homodimer, recombinant …; test: BLI steady state analysis, whole antibody, sample kept at pH 7.2, 4C (unstressed)
Procedure: as §3

[6] = target: T4, cynomolgus macaque CD8 on expanded primary T cells (cynomolgus macaque); test: flow cytometry, Cyno Expanded T cells Donor 9, gated on CD4- T cells, anti-human Fc BV421
T4 construct: also called CD4- CD8+ cynomolgus macaque T cells
Procedure: as §2
as §1, with “Cells were stained with each diluted antibody solution for 30 minutes on ice.” left out

[7] = target: T4, cynomolgus macaque CD8 on expanded …; test: flow cytometry, Cyno Expanded T cells Donor 10, gated on live CD8 T cells (via CD3+CD4-)
Procedure: as §1

[8] = target: T4, cynomolgus macaque CD8 on expanded …; test: as above; remark: listed apart in the source
Procedure: as §1

[9] = target: T3, human CD8αα homodimer, recombinant …; test: BLI, whole antibody, steady state dissociation constant (column head x10^-9M)
Procedure: as §3

T1 sequence (P01732 22-235): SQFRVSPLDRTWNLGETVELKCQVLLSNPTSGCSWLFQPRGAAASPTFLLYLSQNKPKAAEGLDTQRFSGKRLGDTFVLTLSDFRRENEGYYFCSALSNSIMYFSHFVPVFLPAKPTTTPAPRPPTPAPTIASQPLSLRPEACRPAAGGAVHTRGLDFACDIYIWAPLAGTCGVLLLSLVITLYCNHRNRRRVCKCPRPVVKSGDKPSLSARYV

Row | Binder | EC50 [1] [nM] | EC50 (read off the curve) [2] [µg/mL] | Kd [3] [nM] | Kd [4] [nM] | Kd [5] [nM] | EC50 (read off the curve) [6] [µg/mL] | EC50 [7] [µg/mL] | EC50 [8] [nM] | Kd [9] [nM]
1 | CBD1017ch whole antibody (chimeric CT8 antibody) (antibody, V domains shown, Chimeric antibody comprising the variable regions of the donor antibody CT8; detected with anti-human Fc) VH: EVQLQQSGPELVKPGASVKISCKASRYTFTDYNLHWVKLSHEKSLEWIGFIYPYNGGTGYNQKFKNKAKLTVDYSSSTAYMELRSLTSVDAAVYYCARDHRYNEGVSFDYWGQGTTLTVSS VL: NIVLTQSPASLAVSLGQRATISCRASESVDGFGNSFMNWYQQKPGQSPKLLIYLASNLESGVPARFSGSGSRTDFTLTIDPVEADDAATYYCQQNNEDPYTFGGGTKLEIK | 0.356 | ~0.05 | 0.58 | 0.53 | 0.36 | ~0.06 | 0.057 | 0.39 | 
2 | CBD1033 whole antibody, human IgG1 with Fc-silencing mutations L234A, L235A and P329A (CBD1033-hIgG1-LALAPA) (antibody, V domains shown, On tLNPs the antibody was SATA-modified or AJICAP-thiolated (CBD1033.29) and conjugated to the LNP; also called CBD1033.3; CBD1033 IgG1) VH: QVQLVQSGAEVKKPGASVKVSCKASRYTFTDYNLHWVRQAPGQGLEWMGFIYPYNGGTGYAQKFQGRVTMTVDTSTSTAYMELSSLRSEDTAVYYCARDHRYNEGVSFDYWGQGTTVTVSS VL: DIQLTQSPSSLSASVGDRATITCRASESVDGFGNSFMNWYQQKPGKAPKLLIYLASNLESGVPSRFSGSGSGTDFTLTISSVQPEDFATYYCQQNNEDPYTFGQGTKLEIKR | 0.767 | ~0.1 | 2.27 | 2.12 | 1.45 | ~0.2 | 0.169 | 1.16 | 1.43
